The supplement of paper PMC10567573

B1: STX5 (parent)
chain: RSEFTLMAKRIGKDLSNTFAKLEK
B2: IKZF1 (parent)
chain: YHSQDRYEFSSHITRGEHRFHMS

Variants of: B1
Assay: protein stability index of a GFP-peptide fusion (GPS, HEK-293T) (PSI 1-6); higher = more stable
Conditions: c terminus: a fixed tail appended
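Note: lentivirally expressed fusions sorted by FACS into six bins by GFP to DsRed ratio, PSI derived from sequencing read proportions per bin multiplied by bin number.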

In order of rising protein stability index:
1. R10Q  1.05
2. R10Y  1.28
3. K13T  1.46
4. I11L  1.57
5. R10I  1.95
6. E23S  2.18
7. F4L  2.33
8. T18C  2.41
9. L22K  2.47
10. A8C  2.49
11. K21C  2.69
12. R1T  2.7
13. R10L  2.73
14. K21Q  2.8
15. K9D  2.83
16. I11Q  3.33
17. M7P  3.36
18. L15D  3.46
19. E3R  3.64
20. F4W  3.86
21. D14I  4.05
22. F19E  4.74

Variants of: B2
Assay: as above
Conditions: c terminus: native

In order of rising protein stability index:
1. S10K  1.27
2. R19H  1.3
3. T14Y  1.37
4. F20E  1.42
5. R15P  1.42
6. I13Y  1.49
7. T14K  1.49
8. D5A  1.5
9. S23D  1.5
10. G16W  1.51
11. G16L  1.53
12. M22Y  1.56
13. G16Q  1.58
14. T14C  1.58
15. F20P  1.59
16. H21M  1.6
17. H18G  1.6
18. I13Q  1.62
19. S3Y  1.63
20. Q4T  1.63
21. E17D  1.63
22. H18I  1.65
23. H18V  1.68
24. H21C  1.69
25. E17M  1.71
26. Y7N  1.72
27. F20T  1.75
28. G16A  1.76
29. R19P  1.77
30. G16I  1.77
31. I13P  1.78
32. E8R  1.8
33. R15K  1.8
34. H21W  1.81
35. I13F  1.81
36. R15E  1.81
37. M22E  1.82
38. I13K  1.82
39. R15V  1.82
40. R15W  1.82
41. I13E  1.83
42. F20M  1.83
43. H18S  1.83
44. T14D  1.83
45. S10H  1.84
46. I13A  1.85
47. R6S  1.87
48. H12D  1.88
49. H21P  1.89
50. Y7A  1.89
51. R19M  1.92
52. S10I  1.92
53. S11N  1.92
54. R19D  1.93
55. S23C  1.94
56. S3M  1.95
57. Y7M  1.95
58. F9E  1.97
59. S23V  1.97
60. M22R  1.99
61. H18L  1.99
62. S10Y  2
63. M22V  2
64. S23G  2
65. M22P  2.01
66. S11D  2.01
67. I13S  2.03
68. H21T  2.04
69. H12F  2.04
70. Y7Q  2.04
71. T14V  2.04
72. D5Y  2.05
73. R6V  2.07
74. S23N  2.08
75. E8M  2.11
76. M22Q  2.11
77. H21L  2.13
78. S3V  2.15
79. H12T  2.15
80. Y7E  2.18
81. Q4H  2.21
82. R6A  2.22
83. R6G  2.22
84. H18K  2.22
85. R15Q  2.22
86. Q4V  2.23
87. S23H  2.23
88. T14N  2.24
89. Y7D  2.26
90. R19N  2.27
91. Y7I  2.27
92. R6E  2.29
93. R15Y  2.29
94. D5V  2.31
95. Y7L  2.33
96. H18W  2.34
97. F20K  2.38
98. S3L  2.39
99. E17K  2.41
100. H2W  2.41
101. Q4S  2.42
102. Y7G  2.44
103. R15A  2.46
104. E17Q  2.48
105. M22I  2.48
106. S3P  2.5
107. E8C  2.5
108. F20Q  2.5
109. S23W  2.5
110. I13L  2.52
111. F9C  2.54
112. F9V  2.65
113. H12N  2.67
114. R15C  2.69
115. T14W  2.7
116. S3I  2.73
117. H12M  2.74
118. Q4D  2.75
119. E17A  2.75
120. S3D  2.76
121. E8I  2.78
122. R6W  2.83
123. R6C  2.84
124. H21R  2.88
125. F20W  2.93
126. D5E  3
127. H12S  3.03
128. E17C  3.05
129. R19E  3.06
130. H21I  3.07
131. F9W  3.1
132. R19C  3.13
133. H2T  3.16
134. D5M  3.27
135. E8K  3.34
136. D5C  3.34
137. H2S  3.36
138. R15I  3.49
139. Y1M  3.5
140. H2N  3.72
141. Y1H  3.76
142. S11L  3.83
143. Y1G  3.97
144. E8L  4.01
145. E8H  4.13
